Columns and labels:
[1] = molecular target: T1, SARS-CoV-2 spike protein trimer, Omicron (B.1.1.529) variant (SARS-CoV-2, UniProt P0DTC2 16-1213)
[2] = molecular target: T2, SARS-CoV-2 spike protein trimer, Beta (B.1.351) variant (SARS-CoV-2, UniProt P0DTC2 16-1213); assay: BLI (Octet), biotinylated spike trimer on streptavidin sensor, IgG titrated
[3] = molecular target: SARS-CoV-2 spike protein trimer, Gamma (P.1) variant (SARS-CoV-2, UniProt P0DTC2 16-1213); assay: ELISA, purified IgG
[4] = molecular target: SARS-CoV-2 spike protein trimer, Alpha (B.1.1.7) variant (SARS-CoV-2, UniProt P0DTC2 16-1213); assay: ELISA, purified IgG
[5] = molecular target: SARS-CoV-2 spike protein trimer, Epsilon (B.1.429) variant (SARS-CoV-2, UniProt P0DTC2 16-1213); assay: ELISA, purified IgG
[6] = molecular target: T2, SARS-CoV-2 spike protein trimer, Beta …; assay: ELISA, purified IgG
[7] = molecular target: SARS-CoV-2 spike protein trimer, Kappa (B.1.617.1) variant (SARS-CoV-2, UniProt P0DTC2 16-1213); assay: ELISA, purified IgG
[8] = molecular target: T1, SARS-CoV-2 spike protein trimer, …; assay: BLI (Octet), biotinylated spike trimer on streptavidin sensor, IgG titrated
[9] = molecular target: SARS-CoV-2 spike protein trimer, Delta (B.1.617.2) variant (SARS-CoV-2, UniProt P0DTC2 16-1213); assay: as above

B1: LxC1-G10 (antibody, V domains shown)
VH: EVQLVESGGGLVQPGGSLRLSCTVSGFSLSTYAMSWVRQAPGKGLEWIGVIASNADTYYASWAKGRFTISRDNSKNTLYLQMNSLRAEDTAVYYCARHPGSAGYGYAVYYAMDPWGQGTLVTVSS
VL: DIQMTQSPSSLSASVGDRVTITCQASERVFYGIDWYQQKPGKAPKLLIYGASALWHGVPSRFSGSGSGTDYTLTISSLQPEDFATYYCQQGYMVPIGFGGGTKVEIK
notes: also called light chain engineered candidate
With B1 the Kd [1] was 51 pM, the “fold improvement in IC50 compared to hN2Y” value [1] was greater than 13 fold and the “fold increased affinity compared to hN2Y” value [2] was greater than 100 fold.

B2: SEQ ID NO 12 (antibody, V domains shown)
VH: EVQLVESGGGLVQPGGSLRLSCTVSGFSLSTYAMSWVRQAPGKGLEWIGVIASNADTYYASWAKGRFTISRDNSKNTLYLQMNSLRAEDTAVYYCARHPGSAGYGYAVYYAMDPWGQGTLVTVSS
VL: DIQMTQSPSSLSASVGDRVTITCQASQPIHYAINWYQQKPGKAPKLLIYGTSHRKMGVPSRFSGSGSGTDYTLTISSLQPEDFATYYCQQGYIVALKFGGGTKVEIK
notes: also called selected clone from LxC libraries; LxC clone
B2: binds [3]; binds [4]; binds [5]. B2: binds [6]; binds [7].

B3: humanized antibody hN2Y (antibody, V domains shown)
VH: EVQLVESGGGLVQPGGSLRLSCTVSGFSLSTYAMSWVRQAPGKGLEWIGVIASNADTYYASWAKGRFTISRDNSKNTLYLQMNSLRAEDTAVYYCARHPGSAGYGYAVYYAMDPWGQGTLVTVSS
VL: DIQMTQSPSSLSASVGDRVTITCKASEDIRYGLNWYQQKPGKAPKLLIYGANTLEAGVPSRFSGSGSGTDYTLTISSLQPEDFATYYCQQGYSTPLTFGGGTKVEIK
Binder B3 has an IC50 [1] of 0.26 µg/mL.

B4: SEQ ID NO 18 (antibody, V domains shown)
VH: EVQLVESGGGLVQPGGSLRLSCTVSGFSLSTYAMSWVRQAPGKGLEWIGVIASNADTYYASWAKGRFTISRDNSKNTLYLQMNSLRAEDTAVYYCARHPGSAGYGYAVYYAMDPWGQGTLVTVSS
VL: DIQMTQSPSSLSASVGDRVTITCKASEDIRYGLNWYQQKPGKAPKLLIYGGSYLRWGVPSRFSGSGSGTDYTLTISSLQPEDFATYYCQQGYRVPIRFGGGTKVEIK
notes: As m4; also called selected clone from LxC libraries; LxC clone
B4: binds [3]; binds [4]; binds [5]. B4: binds [6]; binds [7].

B5: G10xA5 (antibody, V domains shown)
VH: EVQLVESGGGLVQPGGSLRLSCTVSGYTLFPPPVTWVRQAPGKGLEWIGVIASNADTYYASWAKGRFTISRDNSKNTLYLQMNSLRAEDTAVYYCARHPGSAGYGYQYYYAMDPWGQGTLVTVSS
VL: DIQMTQSPSSLSASVGDRVTITCQASERVFYGIDWYQQKPGKAPKLLIYGASALWHGVPSRFSGSGSGTDYTLTISSLQPEDFATYYCQQGYMVPIGFGGGTKVEIK
B5 was tested, and the “fold improved affinity compared to LxC1-G10” value (“fold improved affinity” for short) [8] was 15 fold and the “fold improved affinity” value [9] was greater than 20 fold.

B6: SEQ ID NO 16 (antibody, V domains shown)
VH: EVQLVESGGGLVQPGGSLRLSCTVSGFSLSTYAMSWVRQAPGKGLEWIGVIASNADTYYASWAKGRFTISRDNSKNTLYLQMNSLRAEDTAVYYCARHPGSAGYGYAVYYAMDPWGQGTLVTVSS
VL: DIQMTQSPSSLSASVGDRVTITCQASQDVKYAINWYQQKPGKAPKLLIYGTSSRGEGVPSRFSGSGSGTDYTLTISSLQPEDFATYYCQQGYVVSIFFGGGTKVEIK
notes: As m4
B6: binds [3]; binds [4]; binds [5]. B6: binds [6]; binds [7].

B7: SEQ ID NO 15 (antibody, V domains shown)
VH: EVQLVESGGGLVQPGGSLRLSCTVSGFSLSTYAMSWVRQAPGKGLEWIGVIASNADTYYASWAKGRFTISRDNSKNTLYLQMNSLRAEDTAVYYCARHPGSAGYGYAVYYAMDPWGQGTLVTVSS
VL: DIQMTQSPSSLSASVGDRVTITCQASQKIHYAINWYQQKPGKAPKLLIYGTSYLGGGVPSRFSGSGSGTDFTLTISSLQPEDFATYYCQQGYIVPNSFGGGTKVEIK
notes: As m4
B7: binds [3]; binds [4]; binds [5]. B7: binds [6]; binds [7].

B8: SEQ ID NO 17 (antibody, V domains shown)
VH: EVQLVESGGGLVQPGGSLRLSCTVSGFSLSTYAMSWVRQAPGKGLEWIGVIASNADTYYASWAKGRFTISRDNSKNTLYLQMNSLRAEDTAVYYCARHPGSAGYGYAVYYAMDPWGQGTLVTVSS
VL: DIQMTQSPSSLSASVGDRVTITCQASQPIYYGINWYQQKPGKAPKLLIYGHTYRAWGVPSRFSGSGSGTDFTLTISSLQPEDFATYYCQQGYRVGLGFGGGTKVEIK
notes: As m4
B8: binds [3]; binds [4]; binds [5]. B8: binds [6]; binds [7].

B9: G10xA1 (antibody, V domains shown)
VH: EVQLVESGGGLVQPGESLRLSCKASGFTFPNQAMTWVRQAPGKGLEWIGVIASNADTYYASWAKGRFTISRDNSKNTLYLQMNSPRAEDTAVYYCARHPGSAGYGYALYYAMDPWGQGTLVTVSS
VL: DIQMTQSPSSLSASVGDRVTITCQASERVFYGIDWYQQKPGKAPKLLIYGASALWHGVPSRFSGSGSGTDYTLTISSLQPEDFATYYCQQGYMVPIGFGGGTKVEIK
In the case of B9, the “fold improved affinity” value [8] is reported as 1.2 fold and the “fold improved affinity” value [9] is reported as greater than 20 fold.
